According to paper PMC10786891, “Massively parallel profiling of RNA-targeting CRISPR-Cas13d”:
Residue numbers refer to the chain shown, from its start. Names and notes keep the numbering of the source.

T1: EsCas13d, nuclease-dead (Eubacterium siraeum, UniProt B0MS50, R295A;H300A;R849A;H854A)
T1 sequence: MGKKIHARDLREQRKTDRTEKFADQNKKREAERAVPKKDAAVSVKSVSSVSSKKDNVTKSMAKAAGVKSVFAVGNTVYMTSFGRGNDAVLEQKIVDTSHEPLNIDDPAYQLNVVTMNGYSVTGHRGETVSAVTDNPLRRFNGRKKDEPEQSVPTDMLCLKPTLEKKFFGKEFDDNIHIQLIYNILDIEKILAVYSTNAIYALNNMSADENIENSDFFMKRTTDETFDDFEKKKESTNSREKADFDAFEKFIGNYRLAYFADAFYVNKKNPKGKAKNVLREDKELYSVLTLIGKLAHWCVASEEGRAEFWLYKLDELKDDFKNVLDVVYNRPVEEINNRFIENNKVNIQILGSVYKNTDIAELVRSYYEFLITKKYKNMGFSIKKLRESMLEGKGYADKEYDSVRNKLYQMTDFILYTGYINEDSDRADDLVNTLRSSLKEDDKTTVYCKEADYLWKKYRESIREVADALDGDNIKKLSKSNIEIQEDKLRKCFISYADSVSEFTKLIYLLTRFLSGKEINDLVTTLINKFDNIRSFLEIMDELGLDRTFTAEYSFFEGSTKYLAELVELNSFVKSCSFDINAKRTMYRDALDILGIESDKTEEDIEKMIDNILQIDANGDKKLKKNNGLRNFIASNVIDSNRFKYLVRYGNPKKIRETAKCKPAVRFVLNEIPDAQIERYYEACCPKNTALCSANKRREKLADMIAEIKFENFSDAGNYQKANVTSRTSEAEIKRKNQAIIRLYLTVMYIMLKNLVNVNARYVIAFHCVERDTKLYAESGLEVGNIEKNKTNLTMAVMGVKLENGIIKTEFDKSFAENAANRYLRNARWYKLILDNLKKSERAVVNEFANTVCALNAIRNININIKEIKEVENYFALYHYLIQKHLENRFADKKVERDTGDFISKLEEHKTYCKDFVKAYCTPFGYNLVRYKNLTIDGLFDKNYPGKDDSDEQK

B1: target 2 MT 5'PFS ACC 3'PFS AGA (mixed)
RNA 1: CACCCGUGCAAAAUUGCAGGGGUCUAAAACCUUCUCCAAAUUGUUUCAUCCU
RNA 2: GGGAAUGGAUCCACAUCUACGAAUUCACCAGGAUGAAACAAUUUGGAGAAGAGAAGAUCGGAAGAGCACACGU
B2: target 2 MT 5'PFS GCU 3'PFS CAU (mixed)
RNA 1: B1 RNA 1
RNA 2: B1 RNA 2 with A27G, C29U, A52C, G53A, A54U
B3: target 2 MT 5'PFS UGG 3'PFS CGA (mixed)
RNA 1: B1 RNA 1
RNA 2: B1 RNA 2 with A27U, C28G, C29G, A52C
B4: target 2 MT 5'PFS GUA 3'PFS ACU (mixed)
RNA 1: B1 RNA 1
RNA 2: B1 RNA 2 with A27G, C28U, C29A, G53C, A54U
B5: target 2 MT 5'PFS UGG 3'PFS CGC (mixed)
RNA 1: B1 RNA 1
RNA 2: B1 RNA 2 with A27U, C28G, C29G, A52C, A54C
B6: target 2 MT 5'PFS UGU 3'PFS UAC (mixed)
RNA 1: B1 RNA 1
RNA 2: B1 RNA 2 with A27U, C28G, C29U, A52U, G53A, A54C
B7: target 1 insU 3' of 4,insA 3' of 3 (mixed)
RNA 1: CACCCGUGCAAAAAUGCAGGGGUCUAAAACUGAGCGGAUAACCUCUCUAUGG
RNA 2: GGGAAUGGAUCCACAUCUACGAAUUCGUACCAUAGAGAGGUUAUCCGCUUACACCGAGAUCGGAAGAGCACACGU
B8: target 2 MT 5'PFS GUA 3'PFS ACC (mixed)
RNA 1: B1 RNA 1
RNA 2: B1 RNA 2 with A27G, C28U, C29A, G53C, A54C
B9: target 2 MT 5'PFS GUA 3'PFS ACA (mixed)
RNA 1: B1 RNA 1
RNA 2: B1 RNA 2 with A27G, C28U, C29A, G53C
B10: target 2 MT 5'PFS GUA 3'PFS ACG (mixed)
RNA 1: B1 RNA 1
RNA 2: B1 RNA 2 with A27G, C28U, C29A, G53C, A54G
B11: target 2 MT 5'PFS CUG 3'PFS CAA (mixed)
RNA 1: B1 RNA 1
RNA 2: B1 RNA 2 with A27C, C28U, C29G, A52C, G53A
B12: target 2 MT 5'PFS CAC 3'PFS CAC (mixed)
RNA 1: B1 RNA 1
RNA 2: B1 RNA 2 with A27C, C28A, A52C, G53A, A54C
B13: target 2 MT 5'PFS AAA 3'PFS AUG (mixed)
RNA 1: B1 RNA 1
RNA 2: B1 RNA 2 with C28A, C29A, G53U, A54G
B14: target 2 MT 5'PFS GGC 3'PFS UAA (mixed)
RNA 1: B1 RNA 1
RNA 2: B1 RNA 2 with A27G, C28G, A52U, G53A
B15: target 2 MT 5'PFS CAC 3'PFS CAG (mixed)
RNA 1: B1 RNA 1
RNA 2: B1 RNA 2 with A27C, C28A, A52C, G53A, A54G
B16: target 2 MT 5'PFS AAA 3'PFS AUC (mixed)
RNA 1: B1 RNA 1
RNA 2: B1 RNA 2 with C28A, C29A, G53U, A54C
B17: target 2 MT 5'PFS AAA 3'PFS AUU (mixed)
RNA 1: B1 RNA 1
RNA 2: B1 RNA 2 with C28A, C29A, G53U, A54U
B18: target 1 A1G,A9C (mixed)
RNA 1: B7 RNA 1
RNA 2: GGGAAUGGAUCCACAUCUACGAAUUCGUACCAUAGAGAGGUUCUCCGCUCGCCGAGAUCGGAAGAGCACACGU

Biological target: T1, EsCas13d, nuclease-dead
Test: crRNA (strand 1, pre-loaded); Mg2+; 40 mM Tris-HCl pH 7.5, 150 mM NaCl, 6 mM MgCl2, 1 mM DTT, 0.1% Tween-20, 0.2 mg/ml BSA; 25 C; 10 min per concentration, then washed
Details: tags: His6-TwinStrep-SUMO cleaved; N-terminal SNAP kept (SNAP-Surface 488); label: 3' end held by stalled T7 RNA polymerase

B1 and B2 are within error of each other in Kd: 7.9 ± 3.1 nM for the first, 9.8 ± 2.5 nM for the second.

First: B3
Second: B4
The Kd of the first is 2.9-fold lower: 5.4 ± 0.8 nM for the first, 15.9 ± 2.7 nM for the second.

Going from B5 to B6, the Kd rises from 5.8 ± 0.4 nM to 25 ± 4 nM (4.3-fold).

Going from B7 to B8, the Kd rises from 8 ± 0.3 nM to 22 ± 4 nM (2.8-fold).

B9 and B10 are within error of each other in Kd: 10.7 ± 1.6 nM for the first, 10.6 ± 0.9 nM for the second.

B11 and B12 are within error of each other in Kd: 2.4 ± 0.4 nM for the first, 2.9 ± 0.4 nM for the second.

Compared with B13, B14 is 2.1-fold higher in Kd: 4.4 ± 0.8 nM for the first, 9.4 ± 1.2 nM for the second. The first binds more tightly here.

Compared with B15, B16 is 2.8-fold higher in Kd: 1.3 ± 0.23 nM for the first, 3.6 ± 0.7 nM for the second. The first binds more tightly here.

First: B17
Second: B18
The Kd of the first is 2.6-fold lower: 5.2 ± 1 nM for the first, 13.7 ± 2.3 nM for the second.
